Substitutions are numbered along the chain they refer to.
B1: 33E1 (antibody, V domains shown)
VH: QVQLQESGPGLVKPSQTLSLTCTVSGGSISSGDHYWSWIRQHPGKGLEWIGHIYYSGSTDYNPSLKSRVTISVDTSKNHFSLKLNSVTAADTAVYYCARTNSSSWSDWYFDLWGRGTLVTVSS
VL: DIVMTQSPDSLAVSLGERATINCKSSQSILYSSNNKNYLAWYQRKPGQPPILLIHWASTRESGVPDRFSGSGSRTDFTLTISSLQAEDVAVYYCQQYFITPWTFGQGTKVEIK
notes: Fully human monoclonal antibody from a XenoMouse hybridoma (IgG2 or IgG4 strain), purified
B2: 31E11 (antibody, V domains shown)
VH: QVQLVESGGGLVKPGGSLRLSCAASGFTFSDYYMSWIRQAPGKGLEWVSYISISGSTIYYADSVKGRFTISRDNAKNSLYLQMNSLRAEDTAVYYCARDDFWSGYYFNWFDPWGQGTLVTVSS
VL: DIQMTQSPSSLSASVGDRVTITCRANQTISTFLNWYQQNPGKAPKLLIYAASSLQSGVPSRFSGSGSGTDFTLTISSLQPEDFATYYCQQTYIIPLTFGGGTKVEIK
notes: as for B1
B3: 22B8 (antibody, V domains shown)
VH: QLQLQESGPGLVKPSETLSLTCTVSGGSISSRYYYWGWVRQPPGKGLEWIGTIYYSGHTYYNPSLKTRVTISVDTSKNQFSLKLISVTAADTAVYYCATQQLVLYYFDFWGQGTLVTVSS
VL: EIVLTQSPGTLSLSPGERAALSCRASQSISSSYLAWYQQRPGQAPRLLIYGASSRATGIPDRFNGSGSGTDFTLTISRLEPEDFAVYYCQQFGSSITFGQGTRLEIK
notes: as for B1
B4: 33C3 (antibody, V domains shown)
VH: B2 VH with G16E, I53H, S54G, A88V, Y95F, T117A
VL: DIQMTQYPLSLSASVGDRVTITCRASQSISSFLNWYHQKPGKAPKLLIYGTSSLQSGVPSRFSGSGSGTDFTLTISSLQPEDFATYYCQQTYSIPLTFGGGTNVEIK
notes: as for B1

Assays:
[1] = target: T1, cynomolgus KDR (cynomolgus monkey, UniProt A0A2K5VE63 20-1356); experiment: FACS on Cyno KDR/293T transfectants, antibody 5 ug/mL
T1 construct: whole, on cells; also called Cyno KDR

[2] = target: T2, human KDR (human, UniProt P35968 20-1356); experiment: FACS competition on 293T/human KDR transfectants; antibody 5 ug/mL first, then competitor VEGF165 50 ng/mL; inhibition of VEGF binding
T2 construct: whole, on cells; also called VEGFR2; endogenously-expressed KDR in HUVEC cells
Experimental: (§1) Transfected cells were then seeded at 50,000 cells/well and incubated with 5 μg/mL of candidate antibody for one hour at 4° C. […] After washing, the cells were incubated with Cy5-conjugated rabbit anti-goat antibody plus 7AAD for 15 minutes at 4° C.

[3] = target: T2, human KDR; experiment: cell-based or functional assay
[4] = target: T3, mouse KDR (Flk-1)/Fc (Cat. #443-KD/CF, R&D Systems, Inc.) (mouse, UniProt P35918 20-762); experiment: ELISA, Flk-1 coat 5 ug/mL, antibody 1 ug/mL
T3 construct: Bought reagent; also called mouse VEGFR2; KDR mouse ortholog; not shown: Fc of the bought fusion protein
In short: (§2)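 An ELISA format measured binding of the purified antibodies to coated receptor protein, covering both the mouse Flk-1/Fc ortholog and the isolated Ig4-7 region of KDR. Controls were IgG1 and IgG4 isotype antibodies.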

[5] = target: T4, whole KDR-ECD (Cat. # 676490, Calbiochem) (human, UniProt P35968 20-764); experiment: ELISA, KDR-ECD coat 5 ug/mL, antibody 0.1 ug/mL
T4 construct: extracellular domain; Bought soluble protein; also called soluble KDR; VEGF Receptor 2 D1-7
In short: (§3)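 Coat wells with the recombinant receptor protein, add purified antibody, then detect the bound antibody by ELISA. Isotype IgG1 and IgG4 are run alongside as controls.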

[6] = target: T2, human KDR; experiment: FACS titration of purified antibody on HUVEC cells (FACS Kd)
Experimental: The binding affinities of the purified antibodies for endogenously-expressed KDR in HUVEC cells was measured. HUVEC cells were seeded at 150,000 cells/well and incubated with titrations of purified antibody for 4 hours at 4° C. The cells were then washed and incubated with goat anti-human IgG-Fc-Cy5+5 μg/mL 7-Amino-Actinomycin (7AAD) for 30 minutes at 4° C. Bound KDR was detected using FACS analysis.

[7] = target: T2, human KDR; experiment: FACS competition on 293T/human KDR transfectants; antibody 5 ug/mL first, then competitor VEGF165 50 ng/mL; bound VEGF165 detected
Experimental: as §1

[8] = target: T3, mouse KDR (Flk-1)/Fc (Cat. #443-KD/CF, …); experiment: ELISA, Flk-1 coat 5 ug/mL, antibody 0.1 ug/mL
In short: as §2

[9] = target: T2, human KDR; experiment: cell-based or functional assay; remark: listed apart in the source
[10] = target: T4, whole KDR-ECD (Cat. # 676490, …); experiment: ELISA, KDR-ECD coat 5 ug/mL, antibody 0.01 ug/mL
In short: as §3

[11] = target: T5, soluble KDR Ig4-7 domain (human, UniProt P35968 328-764); experiment: ELISA, KDR Ig4-7 coat (1:1 diln.), antibody 0.1 ug/mL
T5 construct: domain: Ig4-7 domain; also called b-KDRIg4-7-myc-his; Ig4-7 domain of KDR; not shown: myc-his tag of the pSecTag construct
In short: as §2

[12] = target: T4, whole KDR-ECD (Cat. # 676490, …); experiment: ELISA, KDR-ECD coat 5 ug/mL, antibody 1 ug/mL
In short: as §3

[13] = target: T5, soluble KDR Ig4-7 domain; experiment: ELISA, KDR Ig4-7 coat (1:1 diln.), antibody 0.01 ug/mL
In short: as §2

[14] = target: T3, mouse KDR (Flk-1)/Fc (Cat. #443-KD/CF, …); experiment: ELISA, Flk-1 coat 5 ug/mL, antibody 0.01 ug/mL
In short: as §2

[15] = target: T2, human KDR; experiment: cell-based or functional assay; remark: listed apart in the source
[16] = target: T5, soluble KDR Ig4-7 domain; experiment: ELISA, KDR Ig4-7 coat (1:1 diln.), antibody 1 ug/mL
In short: as §2

T1 sequence (A0A2K5VE63 entry or part of it): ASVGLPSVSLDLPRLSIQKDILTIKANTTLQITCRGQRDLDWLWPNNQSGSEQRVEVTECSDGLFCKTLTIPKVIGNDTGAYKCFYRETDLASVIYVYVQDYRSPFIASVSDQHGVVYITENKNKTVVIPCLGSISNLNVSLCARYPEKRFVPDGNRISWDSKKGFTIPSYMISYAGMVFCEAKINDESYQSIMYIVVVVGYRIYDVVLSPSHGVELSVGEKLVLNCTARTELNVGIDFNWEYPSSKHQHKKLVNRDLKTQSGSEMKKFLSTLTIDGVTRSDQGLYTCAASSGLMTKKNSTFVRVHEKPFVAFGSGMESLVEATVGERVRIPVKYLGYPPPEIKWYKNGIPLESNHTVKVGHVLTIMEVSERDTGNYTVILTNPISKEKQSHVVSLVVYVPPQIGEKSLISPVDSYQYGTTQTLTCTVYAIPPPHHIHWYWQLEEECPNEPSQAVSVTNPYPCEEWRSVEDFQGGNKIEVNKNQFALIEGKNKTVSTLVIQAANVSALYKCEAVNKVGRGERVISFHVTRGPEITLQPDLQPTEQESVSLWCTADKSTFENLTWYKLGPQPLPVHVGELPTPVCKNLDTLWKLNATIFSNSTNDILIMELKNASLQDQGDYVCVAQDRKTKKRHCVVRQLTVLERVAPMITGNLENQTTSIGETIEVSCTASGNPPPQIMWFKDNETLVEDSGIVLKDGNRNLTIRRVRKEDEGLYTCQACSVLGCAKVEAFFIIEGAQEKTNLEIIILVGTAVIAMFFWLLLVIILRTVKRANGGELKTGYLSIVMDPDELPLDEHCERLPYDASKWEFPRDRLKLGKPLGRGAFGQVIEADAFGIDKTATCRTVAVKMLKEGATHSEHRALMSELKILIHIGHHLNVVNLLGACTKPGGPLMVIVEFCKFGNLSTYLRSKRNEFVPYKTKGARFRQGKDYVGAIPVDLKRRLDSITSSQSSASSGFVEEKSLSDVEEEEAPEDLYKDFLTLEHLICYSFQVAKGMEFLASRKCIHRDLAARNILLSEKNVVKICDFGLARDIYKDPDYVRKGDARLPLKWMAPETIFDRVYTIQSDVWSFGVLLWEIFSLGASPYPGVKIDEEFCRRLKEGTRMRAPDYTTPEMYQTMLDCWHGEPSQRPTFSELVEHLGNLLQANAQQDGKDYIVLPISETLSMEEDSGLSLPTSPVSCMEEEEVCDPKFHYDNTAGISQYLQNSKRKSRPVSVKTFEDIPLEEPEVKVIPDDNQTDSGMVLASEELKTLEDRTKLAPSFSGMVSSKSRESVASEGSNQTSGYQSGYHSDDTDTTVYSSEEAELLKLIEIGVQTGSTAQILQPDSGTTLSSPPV
T5 sequence (P35968 328-764): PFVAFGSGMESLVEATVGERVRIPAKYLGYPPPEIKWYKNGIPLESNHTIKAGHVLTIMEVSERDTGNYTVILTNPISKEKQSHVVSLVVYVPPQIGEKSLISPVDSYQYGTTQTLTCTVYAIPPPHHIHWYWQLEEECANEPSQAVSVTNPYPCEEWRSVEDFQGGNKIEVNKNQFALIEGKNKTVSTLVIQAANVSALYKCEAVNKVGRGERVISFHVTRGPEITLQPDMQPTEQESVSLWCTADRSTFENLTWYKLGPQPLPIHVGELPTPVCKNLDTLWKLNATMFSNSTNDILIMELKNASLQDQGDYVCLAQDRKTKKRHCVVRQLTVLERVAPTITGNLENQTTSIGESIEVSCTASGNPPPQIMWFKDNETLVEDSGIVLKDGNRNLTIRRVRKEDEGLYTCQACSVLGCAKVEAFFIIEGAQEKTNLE
T3 sequence (P35918 20-762 limits assumed): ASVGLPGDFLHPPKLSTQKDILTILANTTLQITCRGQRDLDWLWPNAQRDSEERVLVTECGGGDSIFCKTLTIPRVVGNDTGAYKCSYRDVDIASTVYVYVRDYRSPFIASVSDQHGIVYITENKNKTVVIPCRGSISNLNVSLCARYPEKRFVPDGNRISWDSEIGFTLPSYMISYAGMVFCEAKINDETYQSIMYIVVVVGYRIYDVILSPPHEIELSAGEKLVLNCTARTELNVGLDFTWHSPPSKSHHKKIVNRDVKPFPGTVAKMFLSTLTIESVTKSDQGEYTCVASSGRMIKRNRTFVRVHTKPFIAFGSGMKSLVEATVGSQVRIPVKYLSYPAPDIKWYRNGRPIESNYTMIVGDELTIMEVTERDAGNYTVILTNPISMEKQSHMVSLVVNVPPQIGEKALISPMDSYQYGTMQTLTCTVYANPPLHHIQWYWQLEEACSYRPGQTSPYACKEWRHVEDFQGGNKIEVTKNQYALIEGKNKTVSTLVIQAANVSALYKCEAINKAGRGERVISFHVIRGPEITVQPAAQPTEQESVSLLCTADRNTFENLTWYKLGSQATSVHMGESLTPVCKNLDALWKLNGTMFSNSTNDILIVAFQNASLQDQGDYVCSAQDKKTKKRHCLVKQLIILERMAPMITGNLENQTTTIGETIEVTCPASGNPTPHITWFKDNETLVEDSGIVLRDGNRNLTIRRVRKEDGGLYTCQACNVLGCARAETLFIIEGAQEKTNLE
T4 sequence (P35968 20-764): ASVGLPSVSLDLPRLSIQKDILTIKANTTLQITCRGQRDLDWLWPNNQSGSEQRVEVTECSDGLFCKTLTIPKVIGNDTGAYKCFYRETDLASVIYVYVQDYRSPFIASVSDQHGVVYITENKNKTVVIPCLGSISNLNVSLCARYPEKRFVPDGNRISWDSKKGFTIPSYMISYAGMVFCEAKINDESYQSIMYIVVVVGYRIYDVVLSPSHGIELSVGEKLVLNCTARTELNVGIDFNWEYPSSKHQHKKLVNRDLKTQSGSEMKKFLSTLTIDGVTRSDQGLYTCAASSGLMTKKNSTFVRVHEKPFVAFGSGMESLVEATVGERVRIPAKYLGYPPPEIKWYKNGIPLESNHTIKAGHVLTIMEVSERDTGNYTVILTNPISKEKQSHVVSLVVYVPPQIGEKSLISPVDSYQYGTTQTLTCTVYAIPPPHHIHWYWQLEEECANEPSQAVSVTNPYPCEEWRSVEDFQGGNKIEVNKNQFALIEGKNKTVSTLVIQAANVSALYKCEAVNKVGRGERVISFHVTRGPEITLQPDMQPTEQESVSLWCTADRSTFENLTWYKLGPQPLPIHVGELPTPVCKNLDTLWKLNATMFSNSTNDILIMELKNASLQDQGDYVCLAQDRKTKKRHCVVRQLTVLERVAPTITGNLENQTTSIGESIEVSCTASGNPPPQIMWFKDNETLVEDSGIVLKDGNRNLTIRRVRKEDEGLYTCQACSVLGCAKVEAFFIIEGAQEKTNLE
T2 sequence (P35968 20-1356): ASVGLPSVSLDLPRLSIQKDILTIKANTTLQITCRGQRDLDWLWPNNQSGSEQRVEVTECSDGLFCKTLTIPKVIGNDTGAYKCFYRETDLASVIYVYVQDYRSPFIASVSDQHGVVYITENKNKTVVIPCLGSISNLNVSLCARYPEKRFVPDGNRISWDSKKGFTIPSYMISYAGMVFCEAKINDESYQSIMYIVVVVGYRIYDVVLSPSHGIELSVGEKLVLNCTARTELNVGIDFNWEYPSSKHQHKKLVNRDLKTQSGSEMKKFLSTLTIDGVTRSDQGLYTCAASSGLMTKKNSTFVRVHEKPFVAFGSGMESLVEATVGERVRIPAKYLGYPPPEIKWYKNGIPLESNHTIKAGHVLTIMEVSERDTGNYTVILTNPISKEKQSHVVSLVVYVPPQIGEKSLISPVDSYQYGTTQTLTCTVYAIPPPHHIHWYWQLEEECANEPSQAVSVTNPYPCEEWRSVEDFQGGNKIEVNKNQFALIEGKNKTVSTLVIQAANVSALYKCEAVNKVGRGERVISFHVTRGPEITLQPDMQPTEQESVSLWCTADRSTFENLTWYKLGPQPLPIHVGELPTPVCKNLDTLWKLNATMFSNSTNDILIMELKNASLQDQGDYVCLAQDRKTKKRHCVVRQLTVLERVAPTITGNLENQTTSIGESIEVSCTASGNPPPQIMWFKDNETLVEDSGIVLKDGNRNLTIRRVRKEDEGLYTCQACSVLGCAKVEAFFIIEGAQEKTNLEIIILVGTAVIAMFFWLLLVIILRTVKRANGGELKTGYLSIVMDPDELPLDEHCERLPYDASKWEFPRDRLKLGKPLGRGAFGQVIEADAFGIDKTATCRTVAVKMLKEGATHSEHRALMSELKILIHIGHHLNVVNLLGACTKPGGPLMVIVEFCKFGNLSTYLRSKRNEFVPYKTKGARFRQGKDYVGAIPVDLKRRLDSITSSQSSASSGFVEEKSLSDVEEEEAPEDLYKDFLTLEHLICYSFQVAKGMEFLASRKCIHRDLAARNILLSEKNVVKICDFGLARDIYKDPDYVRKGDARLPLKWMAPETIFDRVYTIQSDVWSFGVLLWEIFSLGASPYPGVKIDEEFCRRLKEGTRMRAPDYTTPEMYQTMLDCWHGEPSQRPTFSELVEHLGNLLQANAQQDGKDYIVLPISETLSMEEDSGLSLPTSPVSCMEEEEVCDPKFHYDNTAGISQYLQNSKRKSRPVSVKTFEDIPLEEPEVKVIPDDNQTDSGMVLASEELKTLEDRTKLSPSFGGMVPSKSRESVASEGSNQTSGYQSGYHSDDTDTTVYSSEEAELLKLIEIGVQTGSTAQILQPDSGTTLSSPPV

Row | Binder | FACS Geometric Mean Fluorescence [1] | % Inhibition [2] [%] | KDR tyrosine phosphorylation in HUVEC, EC50 (nM), Average [3] [nM] | KDR tyrosine phosphorylation in HUVEC, EC50 (nM), N = 1 [3] [nM] | KDR tyrosine phosphorylation in HUVEC, EC50 (nM), N = 2 [3] [nM] | KDR tyrosine phosphorylation in HUVEC, Maximum Inhibition at 100 nM (% Inhibition), Average [3] [%] | KDR tyrosine phosphorylation in HUVEC, Maximum Inhibition at 100 nM (% Inhibition), N = 1 [3] [%] | KDR tyrosine phosphorylation in HUVEC, Maximum Inhibition at 100 nM (% Inhibition), N = 2 [3] [%] | ELISA reading [4] | ELISA reading [5] | Kd [6] [nM] | FACS Geometric Mean Fluorescence (bound VEGF165) [7] | ELISA reading [8] | HUVEC survival, Maximum Inhibition at 50 nM (% Inhibition), Average [9] [%] | HUVEC survival, Maximum Inhibition at 50 nM (% Inhibition), N = 1 [9] [%] | HUVEC survival, Maximum Inhibition at 50 nM (% Inhibition), N = 2 [9] [%] | ELISA reading [10] | ELISA reading [11] | ELISA reading [12] | ELISA reading [13] | further results
1 | B1 | 88.5 | -15 | 5.5 | 5.8 | 5.1 | 74 | 73 | 75 | 2.17 | 0.205 | 3.8 | 147 | 1.47 | 103 | 107 | 99 | 0.081 | 0.074 | 1.38 | 0.067 | ELISA reading [14]: 0.846; 6-keto Prostaglandin F1α release, EC50 (nM), Average [15]: 5.1 nM; 6-keto Prostaglandin F1α release, EC50 (nM), N = 1 [15]: 4.8 nM; 6-keto Prostaglandin F1α release, EC50 (nM), N = 2 [15]: 5.4 nM; 6-keto Prostaglandin F1α release, Maximum Inhibition (% Inhibition), Average [15]: 90%; 6-keto Prostaglandin F1α release, Maximum Inhibition (% Inhibition), N = 1 (200 nM) [15]: 77%; 6-keto Prostaglandin F1α release, Maximum Inhibition (% Inhibition), N = 2 (333 nM) [15]: 103%; ELISA reading [16]: 0.107
2 | B2 | 99.5 | -8 | 1.9 | 2 | 1.9 | 85 | 84 | 86 | 3.1 | 0.161 | 11.3 | 138 | 2.37 | 101 | 101 | 101 | 0.08 | 0.073 | 1.96 | 0.072 | ELISA reading [14]: 0.826; 6-keto Prostaglandin F1α release, EC50 (nM), Average [15]: 6.2 nM; 6-keto Prostaglandin F1α release, EC50 (nM), N = 1 [15]: 6.1 nM; 6-keto Prostaglandin F1α release, EC50 (nM), N = 2 [15]: 6.4 nM; 6-keto Prostaglandin F1α release, Maximum Inhibition (% Inhibition), Average [15]: 98%; 6-keto Prostaglandin F1α release, Maximum Inhibition (% Inhibition), N = 1 (200 nM) [15]: 88%; 6-keto Prostaglandin F1α release, Maximum Inhibition (% Inhibition), N = 2 (333 nM) [15]: 108%; ELISA reading [16]: 0.107
3 | B3 | 103 | 7 | 3.1 | 2.7 | 3.4 | 77 | 75 | 79 | 3.21 | 0.089 | 1.8 | 120 | 2.94 | 87 | 80 | 95 | 0.075 | 0.078 | 1.91 | 0.074 | ELISA reading [14]: 1.2; 6-keto Prostaglandin F1α release, EC50 (nM), Average [15]: 5.3 nM; 6-keto Prostaglandin F1α release, EC50 (nM), N = 1 [15]: 5.1 nM; 6-keto Prostaglandin F1α release, EC50 (nM), N = 2 [15]: 5.6 nM; 6-keto Prostaglandin F1α release, Maximum Inhibition (% Inhibition), Average [15]: 70%; 6-keto Prostaglandin F1α release, Maximum Inhibition (% Inhibition), N = 1 (200 nM) [15]: 63%; 6-keto Prostaglandin F1α release, Maximum Inhibition (% Inhibition), N = 2 (333 nM) [15]: 76%; ELISA reading [16]: 0.08
4 | B4 | 108 | 2 | 1.2 | 1.2 | 1.1 | 85 | 83 | 86 | 3.48 | 0.153 | 1 | 126 | 3.04 | 101 | 106 | 95 | 0.09 | 0.088 | 1.11 | 0.073 | ELISA reading [14]: 1.25; 6-keto Prostaglandin F1α release, EC50 (nM), Average [15]: 3.9 nM; 6-keto Prostaglandin F1α release, EC50 (nM), N = 1 [15]: 3.5 nM; 6-keto Prostaglandin F1α release, EC50 (nM), N = 2 [15]: 4.4 nM; 6-keto Prostaglandin F1α release, Maximum Inhibition (% Inhibition), Average [15]: 85%; 6-keto Prostaglandin F1α release, Maximum Inhibition (% Inhibition), N = 1 (200 nM) [15]: 76%; 6-keto Prostaglandin F1α release, Maximum Inhibition (% Inhibition), N = 2 (333 nM) [15]: 94%; ELISA reading [16]: 0.094

Reference: patent US20100260765A1 (AstraZeneca / MedImmune, published 2010)
